We go through six sequences from the supplement of paper PMC5998384.

Data set [1] deals with HeLa Kyoto. Description: solubility change mitosis vs G1/S (difference of NP-40 vs SDS log2 ratios) (log2 ratio difference); higher = more soluble in mitosis.
Data set [2] has as its system HeLa Kyoto. Description: thermal stability score vs G1/S (z-score of summed log2 fold changes over temperatures); higher = more thermally stable than in G1/S.
The test system of data set [3] is HeLa Kyoto. Description: solubility in G1/S (NP-40 vs SDS abundance) (log2 ratio); higher = more soluble. As to conditions: cell cycle stage: G1/S.
Data set [4] has as its system HeLa Kyoto. Description: melting temperature (median over replicates), in situ; higher = more thermally stable.
Where [5] appears, read: cell cycle stage: early G1 (4.5 h after nocodazole release).
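For melting temperature (median over replicates), in situ in this document: HeLa Kyoto cells synchronized by double thymidine or nocodazole block, proteins quantified by TMT10plex mass spectrometry, three independent biological replicates.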
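For solubility change mitosis vs G1/S (difference of NP-40 vs SDS log2 ratios) in this document: synchronized HeLa Kyoto cells (double thymidine block for G1/S, nocodazole release for mitosis), protein amounts in NP-40 versus SDS lysates quantified by mass spectrometry, three biological replicates.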
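For solubility in G1/S (NP-40 vs SDS abundance) in this document: HeLa Kyoto cells arrested at G1/S by double thymidine block, proteins quantified by TMT10plex mass spectrometry in mild NP-40 versus SDS extracts, three biological replicates.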
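For thermal stability score vs G1/S (z-score of summed log2 fold changes over temperatures) in this document: synchronized HeLa Kyoto cells, proteins quantified by TMT10plex mass spectrometry, three biological replicates, mitosis taken 0.5 h after nocodazole release, G1/S directly after double thymidine block.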

For “MSSNSFPYNEQSGGGEATELGQEATSTISPSGAFGLFSSDLKKNEDLKQMLESNKDSAKLDAMKRIVGMIAKGKNASELFPAVVKNVASKNIEIKKLVYVYLVRYAEEQQDLALLSISTFQRALKDPNQLIRASALRVLSSIRVPIIVPIMMLAIKEASADLSPYVRKNAAHAIQKLYSLDPEQKEMLIEVIEKLLKDKSTLVAGSVVMAFEEVCPDRIDLIHKNYRKLCNLLVDVEEWGQVVIIHMLTRYARTQFVSPWKEGDELEDNGKNFYESDDDQKEKTDKKKKPYTMDPDHRLLIRNTKPLLQSRNAAVVMAVAQLYWHISPKSEAGIISKSLVRLLRSNREVQYIVLQNIATMSIQRKGMFEPYLKSFYVRSTDPTMIKTLKLEILTNLANEANISTLLREFQTYVKSQDKQFAAATIQTIGRCATNILEVTDTCLNGLVCLLSNRDEIVVAESVVVIKKLLQMQPAQHGEIIKHMAKLLDSITVPVARASILWLIGENCERVPKIAPDVLRKMAKSFTSEDDLVKLQILNLGAKLYLTNSKQTKLLTQYILNLGKYDQNYDIRDRTRFIRQLIVPNVKSGALSKYAKKIFLAQKPAPLLESPFKDRDHFQLGTLSHTLNIKATGYLELSNWPEVAPDPSVRNVEVIELAKEWTPAGKAKQENSAKKFYSESEEEEDSSDSSSDSESESGSESGEQGESGEEGDSNEDSSEDSSSEQDSESGRESGLENKRTAKRNSKAKGKSDSEDGEKENEKSKTSDSSNDESSSIEDSSSDSESESEPESESESRRVTKEKEKKTKQDRTPLTKDVSLLDLDDFNPVSTPVALPTPALSPSLMADLEGLHLSTSSSVISVSTPAFVPTKTHVLLHRMSGKGLAAHYFFPRQPCIFGDKMVSIQITLNNTTDRKIENIHIGEKKLPIGMKMHVFNPIDSLEPEGSITVSMGIDFCDSTQTASFQLCTKDDCFNVNIQPPVGELLLPVAMSEKDFKKEQGVLTGMNETSAVIIAAPQNFTPSVIFQKVVNVANVGAVPSGQDNIHRFAAKTVHSGSLMLVTVELKEGSTAQLIINTEKTVIGSVLLRELKPVLSQG [AP3B1]”, the “solubility change mitosis (log2)” value in the data set with HeLa Kyoto [1] was -0.0973. Moreover, the thermal stability score is -0.704 with HeLa Kyoto [2] (setting [5]) and -0.939 in the data set with HeLa Kyoto [2] (cell cycle stage: mitosis). Besides, the “solubility in G1/S (log2)” value in the data set on HeLa Kyoto [3] is -0.0793. The values for the melting temperature with HeLa Kyoto [4] (cell cycle stage: G1/S) and in the data set on HeLa Kyoto [4] (cell cycle stage: mitosis) were 50.6 °C and 50 °C, respectively.
In the case of “MFVPRSLKIKRNANDDGKSCVAKIIKPDPEDLQLDKSRDVPVDAVATEAATIDRHISESCPFPSPGGQLAEVHSVSPEQGAKDSHPSEEPVKSFSKTQRWAEPGEPICVVCGRYGEYICDKTDEDVCSLECKAKHLLQVKEKEEKSKLSNPQKADSEPESPLNASYVYKEHPFILNLQEDQIENLKQQLGILVQGQEVTRPIIDFEHCSLPEVLNHNLKKSGYEVPTPIQMQMIPVGLLGRDILASADTGSGKTAAFLLPVIMRALFESKTPSALILTPTRELAIQIERQAKELMSGLPRMKTVLLVGGLPLPPQLYRLQQHVKVIIATPGRLLDIIKQSSVELCGVKIVVVDEADTMLKMGFQQQVLDILENIPNDCQTILVSATIPTSIEQLASQLLHNPVRIITGEKNLPCANVRQIILWVEDPAKKKKLFEILNDKKLFKPPVLVFVDCKLGADLLSEAVQKITGLKSISIHSEKSQIERKNILKGLLEGDYEVVVSTGVLGRGLDLISVRLVVNFDMPSSMDEYVHQIGRVGRLGQNGTAITFINNNSKRLFWDIAKRVKPTGSILPPQLLNSPYLHDQKRKEQQKDKQTQNDLVTGANLMDIIRKHDKSNSQK [DDX59]”, in the data set with HeLa Kyoto [1], the “solubility change mitosis (log2)” value is -0.18. Also, the thermal stability score in the data set with HeLa Kyoto [2] (setting [5]) was found to be 1.04; in the data set on HeLa Kyoto [2] (cell cycle stage: mitosis) it was 1.76. The “solubility in G1/S (log2)” value in the data set on HeLa Kyoto [3] was found to be 0.419. Also, the melting temperature in the data set on HeLa Kyoto [4] (cell cycle stage: G1/S) is 50.8 °C; in the data set with HeLa Kyoto [4] (cell cycle stage: mitosis), 50.3 °C.
In the case of “MASEQDVRARLQRAGQEHLLRFWAELAPEPRAALLAELALLEPEALREHCRRAAEACARPHGPPPDLAARLRPLPPERVGRASRSDPETRRRWEEEGFRQISLNKVAVLLLAGGQGTRLGVTYPKGMYRVGLPSRKTLYQLQAERIRRVEQLAGERHGTRCTVPWYVMTSEFTLGPTAEFFREHNFFHLDPANVVMFEQRLLPAVTFDGKVILERKDKVAMAPDGNGGLYCALEDHKILEDMERRGVEFVHVYCVDNILVRLADPVFIGFCVLQGADCGAKVVEKAYPEEPVGVVCQVDGVPQVVEYSEISPETAQLRASDGSLLYNAGNICNHFFTRGFLKAVTREFEPLLKPHVAVKKVPYVDEEGNLVKPLKPNGIKMEKFVFDVFRFAKNFAALEVLREEEFSPLKNAEPADRDSPRTARQALLTQHYRWALRAGARFLDAHGAWLPELPSLPPNGDPPAICEISPLVSYSGEGLEVYLQGREFQSPLILDEDQAREPQLQES [UAP1L1]”, the “solubility change mitosis (log2)” value in the data set with HeLa Kyoto [1] is -0.0981. Also, the thermal stability score with HeLa Kyoto [2] (setting [5]) was -0.582; with HeLa Kyoto [2] (cell cycle stage: mitosis), -0.781. Moreover, the “solubility in G1/S (log2)” value in the data set on HeLa Kyoto [3] was 0.127. Also, the melting temperature in the data set with HeLa Kyoto [4] (cell cycle stage: G1/S) was found to be 52.3 °C; in the data set with HeLa Kyoto [4] (cell cycle stage: mitosis), 53.1 °C.
Take “MPVVRKIFRRRRGDSESEEDEQDSEEVRLKLEETREVQNLRKRPNGVSAVALLVGEKVQEETTLVDDPFQMKTGGMVDMKKLKERGKDKISEEEDLHLGTSFSAETNRRDEDADMMKYIETELKKRKGIVEHEEQKVKPKNAEDCLYELPENIRVSSAKKTEEMLSNQMLSGIPEVDLGIDAKIKNIISTEDAKARLLAEQQNKKKDSETSFVPTNMAVNYVQHNRFYHEELNAPIRRNKEEPKARPLRVGDTEKPEPERSPPNRKRPANEKATDDYHYEKFKKMNRRY [C9ORF78]”: the “solubility change mitosis (log2)” value in the data set on HeLa Kyoto [1] was 0.0516. The thermal stability score with HeLa Kyoto [2] (setting [5]) was -2.13; in the data set on HeLa Kyoto [2] (cell cycle stage: mitosis), -4.34. Further, the “solubility in G1/S (log2)” value in the data set on HeLa Kyoto [3] turned out to be 0.501. The melting temperature with HeLa Kyoto [4] (cell cycle stage: G1/S) was determined as 57.3 °C; in the data set on HeLa Kyoto [4] (cell cycle stage: mitosis), 55.1 °C.
For “MAWRRREASVGARGVLALALLALALCVPGARGRALEWFSAVVNIEYVDPQTNLTVWSVSESGRFGDSSPKEGAHGLVGVPWAPGGDLEGCAPDTRFFVPEPGGRGAAPWVALVARGGCTFKDKVLVAARRNASAVVLYNEERYGNITLPMSHAGTGNIVVIMISYPKGREILELVQKGIPVTMTIGVGTRHVQEFISGQSVVFVAIAFITMMIISLAWLIFYYIQRFLYTGSQIGSQSHRKETKKVIGQLLLHTVKHGEKGIDVDAENCAVCIENFKVKDIIRILPCKHIFHRICIDPWLLDHRTCPMCKLDVIKALGYWGEPGDVQEMPAPESPPGRDPAANLSLALPDDDGSDDSSPPSASPAESEPQCDPSFKGDAGENTALLEAGRSDSRHGGPIS [RNF149]”, in the data set on HeLa Kyoto [1], the “solubility change mitosis (log2)” value was -0.076. Moreover, the results for the thermal stability score with HeLa Kyoto [2] (setting [5]) and in the data set with HeLa Kyoto [2] (cell cycle stage: mitosis) were -0.202 and -3.79, respectively. In addition, the “solubility in G1/S (log2)” value in the data set on HeLa Kyoto [3] is -0.136. In addition, the melting temperature with HeLa Kyoto [4] (cell cycle stage: G1/S) was 53.8 °C; in the data set on HeLa Kyoto [4] (cell cycle stage: mitosis), 54.1 °C.
In the case of “MAGGAREVLTLQLGHFAGFVGAHWWNQQDAALGRATDSKEPPGELCPDVLYRTGRTLHGQETYTPRLILMDLKGSLSSLKEEGGLYRDKQLDAAIAWQGKLTTHKEELYPKNPYLQDFLSAEGVLSSDGVWRVKSIPNGKGSSPLPTATTPKPLIPTEASIRVWSDFLRVHLHPRSICMIQKYNHDGEAGRLEAFGQGESVLKEPKYQEELEDRLHFYVEECDYLQGFQILCDLHDGFSGVGAKAAELLQDEYSGRGIITWGLLPGPYHRGEAQRNIYRLLNTAFGLVHLTAHSSLVCPLSLGGSLGLRPEPPVSFPYLHYDATLPFHCSAILATALDTVTVPYRLCSSPVSMVHLADMLSFCGKKVVTAGAIIPFPLAPGQSLPDSLMQFGGATPWTPLSACGEPSGTRCFAQSVVLRGIDRACHTSQLTPGTPPPSALHACTTGEEILAQYLQQQQPGVMSSSHLLLTPCRVAPPYPHLFSSCSPPGMVLDGSPKGAAVESIPVFGALCSSSSLHQTLEALARDLTKLDLRRWASFMDAGVEHDDVAELLQELQSLAQCYQGGDSLVD [MSTO1]”, the “solubility change mitosis (log2)” value in the data set with HeLa Kyoto [1] is -0.0764. The thermal stability score in the data set on HeLa Kyoto [2] (setting [5]) was determined as 0.792; in the data set with HeLa Kyoto [2] (cell cycle stage: mitosis), 0.318. In addition, the “solubility in G1/S (log2)” value in the data set on HeLa Kyoto [3] was 0.162. For the same sequence, the melting temperature with HeLa Kyoto [4] (cell cycle stage: G1/S) stood at 51.2 °C; in the data set on HeLa Kyoto [4] (cell cycle stage: mitosis) it was 51.1 °C.
